Measured values as given in a protein production outcome set (Wang et al. 2014).

Experiment: label from the status in PepcDB records

Sequence | protein production
MARSEGNRPRHRAVPQPSRIRKRLSRGVMTLVSVVALLMTGAGYWVAHGALGGITISQALTPEDPRSSGNNMNILLIGLDSRKDQEGNDLPWSVLKQLHAGDSDDGGYNTNTLILVHVGADGKVVAFSIPRDDWVPFTGVPGYNHIKIKEAYGLTKQYVAEQLANQGVSDRKELETRGREAARAATLRAVRSLTGVPIDYFAEINLAGFYDLAQTLGGVDVCLNHAVYDSYSGADFPAGRQRLNAAQALAFVRQRHGLDNGDLDRTHRQQAFLSSVMRELQDSGTFTNLDRLDNLMAVARKDVVLSAGWDEDLFRRMGDLAGGNVEFRTLPVVRYDNIDGQDVNIIDPTAIRAEVAAAFGSAPPTSQTAAAAKPNPSTVVDVVNAGSISGLASQVSGALLKRGYTAGQVRDRESGDPFTTAIEYGAGAETDAQNVADLLGIDAPNHPDPAVAPGHIRVTVDTNFSLPAPDEATAAATSTETSTYPLYGGGTTTDPTPDQGAPIDGGGVPCVN | failed
MASLLPSTGRGENIAGKLLLLIVALLMCIGVVVVYSSGAGWAEQKFSDPQYFLWRQLTFAIAGMAVIFVVGAIDYHIFRKISKLFLFVSIGLLAILLLLKLAHVIHGAARWLGFGPLKFQASDLAKYAIIFHFSRLLSEKRAYIKDLHDGYYPMLVLLMIVVALVALEPNFSTASIIAIIGFTLMFIGGIRIKYLLATASLLIPIAAVFAIAAPYRVARLVSFGGGEKELSYQVRQALLGLGNGGLFGLGLGASKQRELYLPLSYNDFVFVIIGEEYGFIGALVILLLFSGLFACGIIIAKHAPDLFGRYVAIGVTFAIVFFAFINIAVACHLMPTTGVALPFISYGGTALLFNSLGIGLLVSISRYRKKVETIERAQALLESKGGSL | failed
MSLSNIETVPASIEMKPNPTITVFERSPDGGRGLARDMPVRWALEEVGRPYHVRRLSFEAMKEASHLAYQPFGQIPSYEQGDLILFESGAIVMHIAQHHSGLLPEDQLRRARTVAWMFAALNTIEPSILNFTTVWLFERNEPWHEARLARTKEQLLKRLDELSAWLGDREWLEGSFSAADILMICVLRRLESSGILKDYGNLLAYVERGKARPAFKRAFDAQLAVFTAASKNEGHHHHHH | not failed
MLIKLTGGTVYDPANGIDGQVRNLFIRDGRIVHSLNGATPDQEYDLRGKVVMAGAIDMHTHIGGGKVT | failed
MAFTESDVYNNEAFFKQYMKRRYRENSPNELIEKPAFFQLIGDVKGKKILDLGCGDAIFGKELLEKDCHSYTGIEGSELMYEKAKKQLENKNGIVHFLNLKDYTYPPATFDLVTSRLALHYIEHLPIIFQNVYETLKTNGTFTFSVQHPVITSSFESLQTSGKRTSWLVDDYFKTGKRVEPWIDQKVIKYHRTTEEYFTLLQQAGFTITNLKEATPNQTYFQSAEEYERRLRIPLFLLFSCRKLEHHHHHH | not failed
MTKISKAACIGGGVIGGGWIARFLLAGIDVDVFDPHPEAGRIVGEIIANAEKAYAMLTGAPLPPRGKLTFCETLAEAVADADWIQESVPERLDLKRGVLTEIDAAARPEALIGSSTSGLLPTDLQRNMTHPERLFVAHPYNPVYLLPLVEIVGGEKTSAGTIRAAIERLAPIGMKGVHIAKEIEAFVGDRLLEALWREALWLIHDDICTVETLDDVIRYSFGLRWAQMGLFQTYRIAGGEAGMRHFLAQFGPCLAWPWTKLTDVVDLDDALIEKIGRQSDEQAAGLSIRALERIRDENLVGILQALKGGDNGKGWGAGKLLKDFEQTLWARGGDAAASADPSKPLRLVETKVSPAWVDYNGHMTEHRYLQVFGDTSDALLRLIGVDLAYVEAGHSYYTVESHIRHLGEAKLGQAIHSACQILTADEKRLHVFHTLRDTATGAVIATAEQMLLHVDSKEGKAVAAPAAVLDRVKAIAAAHAELALPEGAGRHVGQRR | failed
MVDISLIIGGPQGGGIESAGQIAIKSMVLLGYEVLGSREYHSNIMGAHSYYHLRVQQHRPRSLKLPVDGVLALDAESVFTHFRDVRPGGILVYDPGTKSTRVDAIQPMAGPLKKRLKSLFDSRGMQPVVESAVKLAEEAGARIVGLPLKEMLKTLSERTGAPVARVSRALNTLGLASMLYMLGVPVEYIEKAISLQFAGKEKVINMNVEAVRIAVDYVREAFGEPESRLPPGPRRGQTMMVATGNDLVAMGKIVGGLGVITYYPITPSSDEALYVEKHSYISIDGPLAEKLGYDKIAVAIVQMEDELASINAVLGAAAAGARASTTTSGPGFSLMNEAVSLAVEAEIPVVVTLWMRAGPSTGMPTRTGQQDLLHSIFSGHGDAPKIVLASGDHVEAFYDAIKAFNWAEEFQTPVIHLLDKYLASSMVSLAREDLDPSKVPITRGKLLDNPPADYRRYEVVEDGISPRARLGSATMVITGLEHDEYGYATEDPVMREIMMFKRERKFKVIEERIPDEEKAVLHGDSEASVALVSFGSTKQPILEALEMLRDEGVRARFAQVRLLYPFPGRLVEEMLEGVEKVIMVEQNLLGQLAMLLRAHTSIKPDSSIVKINGRPLYSFEVAGAVKRILETGEERVVVSHGS | failed
MDTTCLVLTWMGSRVPIETIEEDGEFDWEAAVKEIDLACLKTTNAHPPITENLTKPPAKRQSTLDKFIGRTEPKPENHQVVSECGGNDNDNSLLVEIDPEAAKTWIYRGLLRLLTF | failed
MNNFVSELQSYFASKYPFLSANIPRQQQLLGDSWSQEFDGELIKHFGTIEELRTAADGYAKFAMDSLLLTAKFQKTKDYDNKTYAECASEVYQSESYMHSLYLPGILLSHYLWKHHYAMYQFYKSIVVPVLPKSGLFIDVGVGTGFYSRNLLRDSQMTGIGCDMSPHSLSYTRSTLSKFGTVDKYSFCLCDYYHFNQYFQSTADFILSIEVLEHLEDPMKMLESLYKSLKPGGLGLISAAVNAPNADHIYLYRSCEDVRHQLIKAGFEIRHDTCDEAYEARTIGEVVPVNYGALVCKPS | failed
MLKFNKVFMYITASALSVSLWTCTSFAQQNKTGVTTASMLNMRENPSTSTKIIDQIPNGTKVDIIETSNGWYKISYNGKTGWVYGSYVKVTETPKLTVTDETILATLNKGSTGNSSTNSSTNNSAVNNSSSQVVDETIQKPAQNAASGENTENTVVKTGIVKASALNVRQGPGTSYSIINQLSNGAKVNIIKEESGWYQIKLANGSTGWVSGTYVNVNTTIASRGGLSENSAPAASNNSDVSGVRQQVVEYAKKFLGVKYVYGGNSPSQGFDCSGFVKYVFSNFGINLERVAASQAKQGTWVSKDQLLPGDLVFFDTDGGHNYINHSGIYIGDGKFIHASSGSGKKSVVISDLTSGFYANTYMTARRVLN | failed
MSMECVVQGIIETQHVEALEILLQGLCGVQRERLRVHELCLRSGPNLGVVSSEVRLLCDLDQPEPTWTVKHVGGAMRGAGADQISVLVRNMIESKVSKNALRMFYALGYKLDHELLKVGFAFHFQRTAHISVSVSSVNKMPKVHAIDEAVPVTPGMQIVDVTAPATSENYSEVAAAVSSFCEFLAPLVHLSKPSISTGVVPTAAAAAASLMSDGGGTTL | failed
MIATLRSYLSADKRGLVGPAFLFLSLLASISDPFGGYGMTFLRRFLFWVLVLGVAGGIAFLSHRMVERHLSGAPLLGKDLLIVLLVTLSFTPSLWVLIFLFAAPSTGTAPDMWSMARYGTIFASGLIVLRRGVFGQSVPEEESLQPRIYKRLPEGFSEQILRLTVRDHSVDVVTDKGVHTIRSRFGDAIDEMVPISGHCTHRSHWVTDTAIESVERSGGKIHLRLSNGDLIPVSRKYRPALEEAGIV | failed
MGIFGWRTASLLKKAWQLYQQQHWSKAQQCARQVIEQTPQPEAYYLLGLIAEQLARPLEARTAYEQAIALDPWHAPSHYRLAVVLHALLQQPAAAVPHYQRALEVKPDWVEAHSNLGNAYLDLGDTEGAIACYQKALSLNPDLPTTLYNLGLCLHAQGKLTEATACYEQSLYLEPGQADVHNNLGSAYLELKNYTAATVHFQAALGANPELLVAHYNLGYALHLQGNLAAARDRYQEVLLRDNKHLRTLLQLGQICLAEEDLTGAIGYYQRCLSLDPLNSAAQAGLATALLESGDPQAALPYLRQAVALNPEAEDVRLKFALVLLMLEQFREGWQEYEWRWQQPTGGLRNYPQPRWQGQSLKGKTLFVYSEQGFRDCIQFVRLLPLMAKHAQRIIFEAYPPLVRLCQTLPGIEVMSTEETPPPFDYHTPLLSLPRYLGIDQDHFPKFKPYFPLPTRPPHPLFKVSKPRVGLVWASHSQTRTTVQRSCPLEYFLPLLQEFDVQWYSLQKERSPTEAEQLRQVGVIDCQPYMGDFLDTALLIQQLDAVVTIDTAVAHLAGALGKPLWILLPFVADWRWFWRRSRSPWYPSAELIRQPQRGDWPGAIAQLRSALQAHYRTRCNGIPN | failed
